Test results from US20160129077A1, “Use of recombinant ganoderma immunoregulatory protein (rLZ-8) in preparation of drug for treating melanoma” (priority 2013, published 2016).
Where two headings read alike, the source gives them in different places. Marks after values point to notes of the source that are not given here.

Tests used:
[1] = system: human gastric cancer cells (SGC-7901); details: cited from earlier work
[2] = Toxicity test of rLZ-8 on SD rats; assay type: in vivo; set-up: Weight gains, male / Weight gains, female / BUN (blood urea nitrogen) / CHE (cholinesterase) / CRE (creatinine) / TBA (total bile acid) / UA (uric acid) / ALT (alanine aminotransferase) / AST (aspartate aminotransferase): unit not given here; details: for Weight gains, female: female SD rats; for Weight gains, female / Weight gains, male: 46 days; for Weight gains, male: male SD rats
Protocol: The administration dosages for the rats were calculated based on the administration dosage for the mice; the rats were divided into a contrast group (physiological saline), a low dosage group (15 μl/kg weight), a medium dosage group (30 μl/kg weight) and a high dosage group (60 μl/kg weight). The administration manner was an intraperitoneal injection.
Feeding amount, weight; serology: liver function and kidney function; immunity: thymus index and spleen index; serum complements IgM, IgG, C3 and C4; pathology examination: heart, liver, spleen, lung, kidney, pancreas, thymus, gonad etc.

[3] = system: human lung carcinoma cells (A549); details: cited from earlier work
[4] = system: B16F10 orthotopic tumor; details: for Mortality rate (administration for 28 days) / Mortality rate (administration for 56 days): dead mice/animal number
Protocol: The mice were transplanted with a melanoma cells line B16-F10.
The mice melanoma cells B16-F10 were cultured in the DMEM containing 10% fetal bovine serum, at 37° C. in the CO2 thermostat incubator. 200 μl of B16-F10 cell suspension (containing 1×10^7 cells) was slowly subcutaneously injected into a dorsal-ventral side of the mouse through 1 ml syringe, so as to establish a model of mice transplanted with tumors. […] The rLZ-8 was injected once per day; the DTIC was continuously tail-intravenously injected for 5 days and injected for a second time after 3 weeks. During the experiment, living states of the mice were observed; the mice were weighed once every 7 days; blood samples were taken from tail veins of the mice every 2 weeks; volumes of the tumors, subcutaneously injected into the mice, were measured every 2 days; for each group, the tumors were dissected at an end of the experiment and weighed on the balance, with weights recorded. According to a formula that a tumor growth inhibition rate=(an average weight of the tumors of the physiological saline group−an average weight of the tumors of the drug administrated groups)/the average weight of the tumors of the physiological saline group, the inhibition rate of the rLZ-8 upon the growth of the orthotopic tumor was calculated.

[5] = system: IFN-γ secreting expression; assay: Neutralization activity of anti-rLZ-8 antibody by biological activity method (IFN-γ secreting expression stimulated by rLZ-8); assay type: cell-based
Protocol: As a fungal recombinant genetic engineering drug, it is crucial to track generation of antibody of the rLZ-8 for a preclinical evaluation. Blood serum of normal monkeys, Macaca fascicularis, after being continuously administrated, was selected for testing antibody of the rLZ-8 by ELISA and for testing a neutralization activity of anti-rLZ-8 antibody by a biological activity method.
On the 9th-11th days of administrating the drug, three monkeys were tested to have low titer (1:5) of the anti-rLZ-8 antibody; after the 28th day of administrating, the titer of the antibody maintained low, within a range of 1:25 to 1:125. No anti-rLZ-8 antibody was tested from the monkeys of the contrast group. […] Therefore, the inhibition effect of the monkey blood serum was not the property of the competitive neutralizing antibody.

[6] = system: B16-F10 lung metastases; assay: B16-F10 melanoma lung metastasis model (tail vein injection) in Kunming mice; assay type: in vivo; details: for Survival rate when all mice of the negative contrast group were dead: 87th / 95th day after injecting the tumors
From the text: DMEM, fetal bovine serum, PBS, trypsin-EDTA, DMSO, Tris-HCl buffer with pH 7.6 for rinsing, 0.05% trypsin, rLZ-8, and DTIC.
After the mice were put to death, lungs of the dead mice were dissected out and the number of black spots on surfaces of the lungs, formed by an aggregation of metastasis cell, was counted, so as to calculate the inhibition rate of the drug against the growth of the lung metastasis as: inhibition rate=(an average metastasis number of the negative contrast group−an average metastasis number of the drug administrated group)/the average metastasis number of the negative contrast group×100%. A time and the number of the dead mouse in each experiment group were recorded in detail, especially during administrating the drug continuously, until the negative contrast group was completely dead; and then, the survival states of the mice in the experiment groups and the contrast groups were analyzed. A survival rate was calculated according to the number of the dead mice in the other groups when all the mice of the negative contrast group were dead, based on a formula that survival rate=(a total number of the mice−the number of the dead mice)/the total number of the mice.

[7] = high dosage 60 μl/kg weight i.p.
[8] = low dosage 15 μl/kg weight i.p.
[9] = medium dosage 30 μl/kg weight i.p.
[10] = medium dosage 246 μg/kg, 28 days
[11] = medium dosage 246 μg/kg, 56 days
[12] = culture medium with anti-rLZ-8 antibody positive (1:125) monkey blood serum diluted 10 times

B1: rLZ-8: recombinant ganoderma immunoregulatory protein (LZ-8), fungal immunoregulatory protein obtained by gene engineering (protein, UniProt P14945 2-111, looked up)
Immunomodulatory protein Ling …: SDTALIFRLAWDVKKLSFDYTPNWGRGNPNNFIDTVTFPKVLTDKAYTYRVAVSGRNLGVKPSYAVESDGSQKVNFLEYNSGYGIADTNTIQVFVVDPDTNNDFIIAQWN
[1]
  Killing of cells in vitro: effectively kills
[2]; SD rats, all dosage groups
  Impact on liver function and kidney function: no obvious adverse impact on the liver function and the kidney function
[2]; compared with the organs of the contrast group
  Pathology examination of tested organs: no obvious morphological change
[2]; [7]
  Weight gains, female: 133.37 ± 15.29
  ALB (albumin): 34.77 ± 1.44
  ALP (alkaline phosphatase): 218.50 ± 69.98
  ALT (alanine aminotransferase): 30.75 ± 2.42
  AST (aspartate aminotransferase): 128.58 ± 18.74
  BUN (blood urea nitrogen): 7.24 ± 0.89
  C3: 0.428 ± 0.082 g/L
  C4: 0.352 ± 0.016 g/L
  CHE (cholinesterase): 456.17 ± 309.59
  CRE (creatinine): 24.22 ± 2.55
  IgG: 0.124 ± 0.081 g/L
  IgM: 0.236 ± 0.076 g/L
  Spleen index (spleen weight/weight × 100): 0.19 ± 0.02
  TBA (total bile acid): 37.30 ± 17.63
  TP (total protein): 63.23 ± 2.88
  Thymus index (thymus weight/weight × 100): 0.17 ± 0.03
  UA (uric acid): 164.50 ± 28.94
  Weight gains, male: 221.92 ± 21.84
[2]; [8]
  Weight gains, female: 140.00 ± 23.48
  ALB (albumin): 37.54 ± 1.62
  ALP (alkaline phosphatase): 243.50 ± 103.54
  ALT (alanine aminotransferase): 35.50 ± 4.93
  AST (aspartate aminotransferase): 175.00 ± 34.96
  BUN (blood urea nitrogen): 7.54 ± 0.47
  C3: 0.449 ± 0.097 g/L
  C4: 0.397 ± 0.021 g/L
  CHE (cholinesterase): 474.17 ± 305.10
  CRE (creatinine): 24.97 ± 1.89
  IgG: 0.146 ± 0.021 g/L
  IgM: 0.220 ± 0.080 g/L
  Spleen index (spleen weight/weight × 100): 0.19 ± 0.03
  TBA (total bile acid): 30.13 ± 16.29
  TP (total protein): 67.58 ± 3.34
  Thymus index (thymus weight/weight × 100): 0.15 ± 0.03
  UA (uric acid): 174.42 ± 46.65
  Weight gains, male: 215.25 ± 17.82
[2]; [9]
  Weight gains, female: 124.08 ± 14.17
  Weight gains, male: 218.67 ± 10.89
  ALB (albumin): 36.57 ± 2.20
  ALP (alkaline phosphatase): 242.83 ± 80.94
  ALT (alanine aminotransferase): 34.42 ± 4.50
  AST (aspartate aminotransferase): 169.08 ± 30.83
  BUN (blood urea nitrogen): 7.36 ± 0.97
  C3: 0.457 ± 0.088 g/L
  C4: 0.412 ± 0.017 g/L
  CHE (cholinesterase): 487.17 ± 303.02
  CRE (creatinine): 24.26 ± 3.55
  IgG: 0.121 ± 0.021 g/L
  IgM: 0.228 ± 0.084 g/L
  Spleen index (spleen weight/weight × 100): 0.18 ± 0.02
  TBA (total bile acid): 38.25 ± 18.15
  TP (total protein): 66.58 ± 4.77
  Thymus index (thymus weight/weight × 100): 0.12 ± 0.02
  UA (uric acid): 186.83 ± 45.67
[3]
  Killing of cells in vitro: effectively kills
[4]; each rLZ-8 dosage group
  Increase of tumor inhibition rate between administration for 28 days and for 56 days: around 15%
[4]; high dosage 492 μg/kg tail i.v. once per day, 28 days
  Tumor weight: 0.14 ± 0.04 g
[4]; high dosage 492 μg/kg, 28 days
  Tumor growth inhibition rate: 88.49 ± 0.51 %
  Tumor volume: 0.11 ± 0.03** mm^3
[4]; high dosage 492 μg/kg, 56 days
  Tumor growth inhibition rate: 95.66±1.77%
  Tumor volume: 0.13 ± 0.09**^## mm^3
  Tumor weight: 0.15 ± 0.07 g
[4]; high dosage 492 μg/kg
  Mortality rate (administration for 28 days): 0/10
  Mortality rate (administration for 56 days): 0/10
[4]; low dosage 123 μg/kg tail i.v. once per day, 28 days
  Tumor weight: 0.6 ± 0.21 g
[4]; low dosage 123 μg/kg, 28 days
  Tumor growth inhibition rate: 51.81 ± 0.41 %
  Tumor volume: 0.5 ± 0.14**^## mm^3
[4]; low dosage 123 μg/kg, 56 days
  Tumor growth inhibition rate: 76.76 ± 0.53 %
  Tumor volume: 0.65 ± 0.24**^# mm^3
  Tumor weight: 0.79 ± 0.31**^ g
[4]; low dosage 123 μg/kg
  Mortality rate (administration for 28 days): 0/10
  Mortality rate (administration for 56 days): 0/10
[4]; medium dosage 246 μg/kg tail i.v. once per day, 28 days
  Tumor weight: 0.43 ± 0.17 g
[4]; [10]
  Tumor growth inhibition rate: 65.00 ± 0.77 %
  Tumor volume: 0.36 ± 0.14**^## mm^3
[4]; [11]
  Tumor growth inhibition rate: 80.10 ± 1.01 %
  Tumor volume: 0.56 ± 0.18**^## mm^3
  Tumor weight: 0.68 ± 0.19 g
[4]; medium dosage 246 μg/kg
  Mortality rate (administration for 28 days): 0/10
  Mortality rate (administration for 56 days): 0/10
[4]; tumor-bearing mice, tail vein blood, anti-tumor treatment experiment (28/56 days)
  Body leukocyte number: small impact on the body leukocyte number
[5]; [12]
  Maximum expression value (Emax) of value A: 0.78±0.09
  Slope of the curve: 0.77±0.20
[5]; monkeys, continuous administration
  Generation of neutralizing antibody: does not generate the neutralizing antibody
[5]; with antibody positive monkey blood serum versus without
  Half maximal inhibitory concentration IC50: increased
[6]; high dosage 492 μg/kg
  Survival rate when all mice of the negative contrast group were dead: 10%
[6]; high dosage 492 μg/kg, 28 days
  Tumor metastases inhibition rate: 71.17±2.43%
[6]; high dosage 492 μg/kg, 56 days
  Tumor metastases inhibition rate: 89.78 ± 2.77 %
[6]; low dosage 123 μg/kg
  Survival rate when all mice of the negative contrast group were dead: 25%
[6]; low dosage 123 μg/kg, 28 days
  Tumor metastases inhibition rate: 62.13±1.88%
[6]; low dosage 123 μg/kg, 56 days
  Tumor metastases inhibition rate: 66.18 ± 1.79 %
[6]; medium dosage 246 μg/kg
  Survival rate when all mice of the negative contrast group were dead: 30%
[6]; [11]
  Tumor metastases inhibition rate: 84.31 ± 3.12 %
